Experiment [1] concerns the target T1, recombinant human NME7-AB (human, UniProt Q9Y5B8 92-376).
T1 construct: Monomer with A and B domains; also called NME-AB
T1 sequence: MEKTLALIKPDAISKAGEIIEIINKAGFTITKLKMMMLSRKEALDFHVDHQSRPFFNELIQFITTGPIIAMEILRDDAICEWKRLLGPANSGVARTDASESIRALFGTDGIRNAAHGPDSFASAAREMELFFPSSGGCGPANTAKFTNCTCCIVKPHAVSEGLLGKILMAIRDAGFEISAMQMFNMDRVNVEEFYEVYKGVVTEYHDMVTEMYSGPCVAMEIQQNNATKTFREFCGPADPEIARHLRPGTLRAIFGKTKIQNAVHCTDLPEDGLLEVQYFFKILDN
Description: ELISA, plate coated with recombinant NME7-AB (FIG. 24). (In general: In an ELISA, binding on a coated surface is turned into a signal by an enzyme label.)

Experiment [2] addresses T1, recombinant human NME7-AB. In words: sandwich ELISA, PSMGFR-Cys-BSA on the plate, second tagged PSMGFR in solution (FIG. 1). On the procedure:
The PSMGFR peptide bearing a C-terminal Cysteine (PSMGFR-Cys) was covalently coupled to BSA using Imject Maleimide activated BSA kit (Thermo Fisher). PSMGFR-Cys coupled BSA was diluted to 10 ug/mL in 0.1M carbonate/bicarbonate buffer pH 9.6 and 50 uL was added to each well of a 96 well plate. After overnight incubation at 4° C., the plate was washed twice with PBS-T and a 3% BSA solution was added to block remaining binding site on the well. After 1 h at RT the plate was washed twice with PBS-T and NME7, diluted in PBS-T+1% BSA, was added at different concentrations. After 1 h at RT the plate was washed 3× with PBS-T and anti-NM23-H7 (B-9, Santa Cruz Biotechnology), diluted in PBS-T+1% BSA, was added at 1/500 dilution. […] After 1 h at RT the plate was washed 3× with PBS-T and binding of NME7 was measured at 415 nm using ABTS solution (Pierce). […]
After 1 h at RT the plate was washed 3× with PBS-T and His-Tagged PSMGFR peptide (PSMGFR-His) or biotinylated PSMGFR peptide (PSMGFR-biotin), diluted in PBS-T+1% BSA, was added at different concentration. […] After 1 h at RT the plate was washed 3× with PBS-T and binding of PSMGFR peptide to NME7 already bound to another PSMGFR peptide (which could not signal by anti-His antibody or by streptavidin) coupled BSA was measured at 415 nm using a ABTS solution (Pierce).

No end group written: not given here.

B1: anti-NME7AB monoclonal antibody 5F3A5D4 (antibody, V domains shown)
VH: VQLQQSGPDLVKPGTSVKISCKTSGNTFTEYTMHWVKQSHGKSLEWIGGFNPNNGVTNYNQKFKGKATLTVDKSSSTAYMELRSLTSEDSAVYYCARRYYHSTYVFYFDSWGQGTTLTVSS
VL: DIQMTQTTSSLSASLGDRVTISCSASQGISNYLNWFQQKPDGTIKLLIYYTSSLHSGVPSRFSGSGSGTDYSLTISNVEPEDIATYYCQQYSKLPYTFGGGTKLEIKR
notes: Mouse monoclonal
B1: the binding result in experiment [1] is listed as “binds”.

B2: anti-NME7AB monoclonal antibody 8F9A5A1 (antibody, V domains shown)
VH: IQLVQSGPELKKPGETVKISCKASGYTFTNYGMNWVKQAPGKGLKWMGWINTYTGEPTYVDDFKGRFAFSLETSATTAYLQINNLKNEDTSTYFCARLRGIRPGPLAYWGQGTLVTVSA
VL: EILLTQSPAIIAASPGEKVTITCSASSSVSYMNWYQQKPGSSPKIWIYGISNLASGVPARFSGSGSGTSFSFTINSMEAEDVATYYCQQRSSYPPTFGGGTKLEIKR
notes: Mouse monoclonal
Consider B2, for which the binding result in experiment [1] is reported as “binds”.

B3: PSMGFR peptide (MUC1* extra cellular domain peptide) (peptide)
peptide: GTINVHDVETQFNQYKTEAASRYNLTISDVSVSDVPFPFSAQSGA
modifications: also: also used with C-terminal Cys coupled to BSA, or His-tagged or biotinylated
notes: also called MUC1* peptide; FLR
On to B3, for which, in experiment [2], the binding result is recorded as “binds”.

The values above are taken from patent US20230279141A1 (MINERVA BIOTECHNOLOGIES, published 2023).
